Laboratory results taken from patent publication US20230167423A1, “RING NUCLEASE” (priority 2019, published 2023).
Entries after “also recorded” stand apart in the source; their conditions may differ. Where two headings read alike, the source gives them in different places.

Key:
[1] = test system: recombinant type III CRISPR system from Mycobacterium tuberculosis; type: cell-based, Escherichia coli
[2] = test system: HEPN ribonuclease StCsm6′; experiment: cA6 degradation, deactivation of cA6-activated HEPN ribonuclease StCsm6′; type: biochemical, S. thermophilus
Procedure: Ring nuclease (Tsac_2833, 2 μM dimer) was incubated with the indicated concentration of cA6 for 60 min at 37° C. […] Control c1 is RNA in the absence of protein, c2 is RNA incubated with Tsac_2833 and c3 is RNA incubated with StCsm6′ in the absence of cA6 activator. vRN—ring nuclease.
Ring nuclease (SIRV1_114a, 2 μM; labelled “vRN”) was incubated with the indicated concentration of cA6 for 20 or 60 min at 70° C. and cooled on ice for 5 min.
When investigating cA6 degradation capacity, THSA-485A Tsac_2833 (2 μM dimer) was incubated with cA6 (50-0.5 μM) for 20 min or 60 min at 37° C. prior to adding 0.5 μM dimer StCsm6′ and 50 nM radio-labelled RNA A1. Reactions were then left to proceed for 60 min at 37° C. before quenching reactions by phenol-chloroform extraction and visualising RNA degradation by phosphor imaging following denaturing PAGE.
A deactivation assay was carried out using the S. thermophilus HEPN ribonuclease StCsm6′, a ribonuclease activated by cA6.

cA4 [3] = experiment: Radiolabelled cA4 cleavage assay, single turnover kinetics; type: biochemical; conditions: for cA4 cleavage / ring nuclease activity in vitro: 37° C., recombinant protein (FIG. 5); for cA4 cleavage single turnover rate constant: 50° C., 4 μM protein dimer, Csx1 buffer
cyclic-di-GMP = experiment: Substrate specificity of ring nuclease by TLC: cyclic-di-GMP; type: biochemical; conditions: multiple-turnover, 49 μM protein, 450 μM substrate, 70° C.
Procedure: (§1) The reactions were then deproteinised by phenol-chloroform extraction followed by chloroform extraction and products separated by TLC. Substrate degradation was visualised and imaged under short-wave ([…]) UV light.

cyclic-AMP = experiment: Substrate specificity of ring nuclease by TLC: cyclic-AMP; type: biochemical; conditions: multiple-turnover, 49 μM protein, 450 μM substrate, 70° C.
Procedure: as §1

[4] = biological target: T1, HEPN family ribonuclease Csx1 (Saccharolobus solfataricus, UniProt Q97YD5); experiment: Deactivation of HEPN nuclease Csx1 in coupled assay with Csm complex and A26 RNA target; type: biochemical, Sulfolobus solfataricus
T1 sequence (Q97YD5 1-377): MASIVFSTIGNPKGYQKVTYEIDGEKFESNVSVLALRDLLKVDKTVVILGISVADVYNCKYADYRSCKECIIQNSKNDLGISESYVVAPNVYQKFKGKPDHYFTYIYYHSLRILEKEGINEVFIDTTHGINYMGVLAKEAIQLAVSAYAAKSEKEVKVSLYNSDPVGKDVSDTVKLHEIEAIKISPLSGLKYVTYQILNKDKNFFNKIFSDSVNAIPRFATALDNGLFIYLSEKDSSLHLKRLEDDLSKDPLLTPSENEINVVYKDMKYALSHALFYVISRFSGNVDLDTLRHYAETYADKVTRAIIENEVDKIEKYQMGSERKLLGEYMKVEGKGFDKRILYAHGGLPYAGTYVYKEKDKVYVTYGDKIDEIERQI
Procedure: FIG. 4. Comparison of the kinetics of the ring nucleases disclosed herein and cellular ring nucleases in deactivating the type III CRISPR defence. • a) Top panel is a phosphor image of denaturing polyacrylamide gel electrophoresis showing activation of HEPN family ribonuclease Csx1 (0.5 μM dimer) and consequent radioactively labelled RNA A1 cleavage in a coupled assay containing type III Csm CRISPR complex carrying A26 CRISPR RNA when challenged by indicated amounts of A26 RNA target to initiate cA4 synthesis. RNA A1 is not a target of Csm. Each set of three lanes after the control (c) reaction with Csx1 and labelled non-target RNA alone, is first in the absence and then the presence the ring nuclease SIRV1 gp29 (labelled “vRN”) or S. solfataricus cellular ring nuclease (cRN) Sso2081 (2 μM dimer), respectively. Whereas the SIRV1 gp29 ring nuclease is able to degrade all cA4 generated with up to 50 nM RNA A26 target, the cellular ring nuclease deactivates Csx1 and protects substrate RNA from degradation only when less than 5 nM A26 RNA target is used to initiate cA4 synthesis. Bottom panel is a phosphor image of thin-layer chromatography with reactions as above but visualizes cA4 production, by a-ATP incorporation, in the presence of indicated amounts of A26 RNA target and absence or presence of either SIRV1 gp29 or cellular ring nuclease. […]

cA4 [5] = experiment: Substrate specificity of ring nuclease by TLC: cA4; type: biochemical; conditions: multiple-turnover, 49 μM protein, 450 μM substrate, 70° C.
Procedure: as §1

cA6 = experiment: Substrate specificity of ring nuclease by TLC: cA6; type: biochemical; conditions: multiple-turnover, 49 μM protein, 450 μM substrate, 70° C.
Procedure: as §1

cA4 [6] = experiment: cA4 degradation capacity: Csx1 activation by HPLC-purified cA4 and deactivation by ring nuclease; type: biochemical; conditions: ring nuclease 2 μM dimer, Csx1 0.5 μM dimer
Procedure: FIG. 4. […] RNA A1 is not a target of Csm. Each set of three lanes after the control (c) reaction with Csx1 and labelled non-target RNA alone, is first in the absence and then the presence the ring nuclease SIRV1 gp29 (labelled “vRN”) or S. solfataricus cellular ring nuclease (cRN) Sso2081 (2 μM dimer), respectively. Whereas the SIRV1 gp29 ring nuclease is able to degrade all cA4 generated with up to 50 nM RNA A26 target, the cellular ring nuclease deactivates Csx1 and protects substrate RNA from degradation only when less than 5 nM A26 RNA target is used to initiate cA4 synthesis. Bottom panel is a phosphor image of thin-layer chromatography with reactions as above but visualizes cA4 production, by a-ATP incorporation, in the presence of indicated amounts of A26 RNA target and absence or presence of either SIRV1 gp29 or cellular ring nuclease. Csx1 deactivation correlated with complete cA4 degradation. • b) Denaturing gel electrophoresis visualising activation of Csx1 (0.5 μM dimer) by indicated amounts of HPLC-purified cA4 (BIOLOG Life Sciences) and its subsequent deactivation when either SIRV1 gp29 ring nuclease (“vRN”) or cellular ring nuclease (2 μM dimer) is present to degrade cA4. The SIRV1 gp29 ring nuclease degrades 100-fold more cA4 than the cellular ring nuclease. Control reactions (c) show RNA incubated with SIRV1 gp29 or Csx1 in the absence of cA4, respectively. […]

cyclic-CAMP = experiment: Substrate specificity of ring nuclease by TLC: cyclic-CAMP; type: biochemical; conditions: multiple-turnover, 49 μM protein, 450 μM substrate, 70° C.
Procedure: as §1

cyclic-di-AMP = experiment: Substrate specificity of ring nuclease by TLC: cyclic-di-AMP; type: biochemical; conditions: multiple-turnover, 49 μM protein, 450 μM substrate, 70° C.
Procedure: as §1

B1: THSA-485A Tsac_2833: DUF1874 ring nuclease from Thermoanaerobacterium bacteriophage THSA-485A, SEQ ID NO. 6 (protein, listed as Archael virus)
chain: MFIANAFSLQMLSQFPAHIDIEEVATSAVAKLDLQSAIGHADTAVVLSGILGKDIESNRVNVQLQPGDSLIVAQLMGGRLPEGSTTLPAGFSFKFFKVTVQA
- effect on cA4-mediated type III CRISPR immunity (plasmid transformation) [1]: overcomes type III CRISPR immunity
- effect on cA4-mediated type III CRISPR immunity (plasmid transformation) ([1]; listed as Tsac_2833): effective in neutralising a cA4-mediated CRISPR defence; also recorded: reduced immunity for cA4-mediated CRISPR defence
- cA6 degradation: protection of substrate RNA from StCsm6′ ([2]; 2 μM dimer pre-incubated with cA6 at 37° C.): protection of the substrate RNA; also recorded: Clear inhibition of substrate RNA cleavage
- cA4 cleavage / ring nuclease activity in vitro (cA4 [3]): cleave cA4 rapidly

B2: Crenothrix polyspora: DUF1874 protein, sequence WP_087145848.1 from the bacterium Crenothrix polyspora, SEQ ID NO. 16 (protein, listed as Crenothrix polyspora)
chain: MTLFIINAPILTSYGDWRFEGPLSIDKTRKLLREGFTSAIGHAASAEMLARLLAMDIPVNRIAITMEAGDRALILRLLQRLPEGKVLNHHEMMATPFELALLTKLK
- cA4 cleavage / ring nuclease activity in vitro (cA4 [3]): cleave cA4 rapidly

B3: SIRV1 gp29: DUF1874 ring nuclease, ORF 114a of Sulfolobus islandicus rudivirus 1 (SIRV1), SEQ ID NO. 7 (protein, listed as Archael virus)
chain: MNKVYLANAFSINMLTKFPTKVVIDKIDRLEFCENIDNEDIINSIGHDSTIQLINSLCGTTFQKNRVEIKLEKEDKLYVVQISQRLEEGKILTLEEILKLYESGKVQFFEIIVD
- degradation of cyclic-di-GMP (TLC) (cyclic-di-GMP): does not degrade; also recorded: does not recognise
- degradation of cyclic-AMP (TLC) (cyclic-AMP): does not degrade
- de-activation of cA4-activated HEPN nuclease Csx1 compared with cRN Sso2081 ([4]; over a range of RNA and cA4 concentrations (FIG. 4)): far more effectively
- amount of A26 RNA target up to which all generated cA4 is degraded / Csx1 deactivated ([4]; ring nuclease 2 μM dimer, Csx1 0.5 μM dimer, 70° C.): up to 50 nM
- degradation of cA4 (TLC) (cA4 [5]): rapidly degrades; also recorded: specific for the degradation
- degradation of cA6 (TLC) (cA6): rapidly degrades; also recorded: specific for the degradation
- cA6 degradation: protection of substrate RNA from StCsm6′ ([2]; 2 μM pre-incubated with cA6 for 20 or 60 min at 70° C.): clear inhibition of substrate RNA cleavage
- cA6 degradation: protection of substrate RNA from StCsm6′ ([2]; 2 μM pre-incubated with cA6 for 20 or 60 min at 70° C., listed as SIRV1_114a): protection of the substrate RNA
- cA4 cleavage single turnover rate constant (cA4 [3]): 7 ± 1 min⁻¹
- cA4 cleavage single turnover rate constant (cA4 [3]; listed as SIRV1 gp29 (orf 114a)): 7.4 min⁻¹
- amount of cA4 degraded relative to cellular ring nuclease (cA4 [6]): 100 fold
- degradation of cyclic-CAMP (TLC) (cyclic-CAMP): does not degrade; also recorded: does not recognise
- degradation of cyclic-di-AMP (TLC) (cyclic-di-AMP): does not degrade; also recorded: does not recognise

B4: B. subtilis yddf: DUF1874 protein encoded by gene yddF of Bacillus subtilis, prophage origin, SEQ ID NO. 15 (protein, listed as Archael virus)
chain: MEIAFLNSLVVTSPGFYKAEKITLDEVKQWLKHYDGRYKSFIGHKSTAQFLQKLLGIRIEQNRKTFRHMKYQKAICFSLYERYPENVLLTQRDLEKARYQFYLLTRLD
- cA4 cleavage / ring nuclease activity in vitro (cA4 [3]): cleave cA4 rapidly
